Source: patent publication US20140112930A1 (published 2014)

T1: Monomeric hAng-2FD (human, UniProt O15123 282-496)
T1 construct: also called fibrinogen-like domain of human Ang2; Human Ang-2FD
T1 sequence: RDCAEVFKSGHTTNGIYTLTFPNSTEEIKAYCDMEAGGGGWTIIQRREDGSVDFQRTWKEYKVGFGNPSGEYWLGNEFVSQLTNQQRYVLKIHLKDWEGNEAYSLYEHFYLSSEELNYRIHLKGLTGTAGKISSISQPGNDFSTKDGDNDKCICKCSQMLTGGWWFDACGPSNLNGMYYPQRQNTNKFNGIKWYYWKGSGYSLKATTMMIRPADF

T2: wild-type human Ang-2 (hAng-2-WT) (human, UniProt O15123 19-496)
T2 construct: called full-length wild-type; also called Full-length wild-type human Ang-2
T2 sequence: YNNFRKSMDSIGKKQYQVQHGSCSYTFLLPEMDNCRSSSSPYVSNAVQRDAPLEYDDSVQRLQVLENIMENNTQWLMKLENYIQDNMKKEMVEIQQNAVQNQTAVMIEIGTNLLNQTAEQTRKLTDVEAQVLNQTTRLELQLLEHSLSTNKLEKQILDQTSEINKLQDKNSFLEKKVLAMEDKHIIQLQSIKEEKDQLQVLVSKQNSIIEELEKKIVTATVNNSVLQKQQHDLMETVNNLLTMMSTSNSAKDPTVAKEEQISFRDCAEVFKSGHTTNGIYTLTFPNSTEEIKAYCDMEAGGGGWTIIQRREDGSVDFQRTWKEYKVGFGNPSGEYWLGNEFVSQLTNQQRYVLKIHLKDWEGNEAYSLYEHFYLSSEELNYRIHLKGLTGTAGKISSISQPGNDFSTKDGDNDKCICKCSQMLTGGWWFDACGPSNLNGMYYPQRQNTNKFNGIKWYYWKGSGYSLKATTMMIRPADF


How the values were obtained:
[1] = biological target: T1, Monomeric hAng-2FD; test: SPR, captured Ab
[2] = biological target: T2, wild-type human Ang-2 (hAng-2-WT); test: SPR, captured Ab
[3] = biological target: T3, Dimeric Human Ang-2FD conjugated to human IgG1 (human); test: SPR, captured Ab, RT
T3 construct: also called Human Ang-2FD-hFc; hAng-2FD-hFc
Protocol: (§1) Antibody was captured on a goat anti-mouse IgG polyclonal antibody surface, a goat anti-human κ polyclonal antibody (Southern Biotech, Birmingham, Ala.) surface or a goat anti-human IgG polyclonal antibody (Jackson Immuno Research Lab, West Grove, Pa.) surface created through direct amine coupling to a BIACORE™ CM5 sensor chip to form a captured antibody surface. […] Antigen-antibody binding and dissociation were monitored in real time at room temperature. Kinetic analysis was performed to calculate KD and half-life of antigen/antibody complex dissociation.

[4] = biological target: T4, Dimeric Mouse Ang-2FD conjugated to human IgG1 (mouse (Mus musculus); human); test: SPR, captured Ab, RT
T4 construct: also called Mouse Ang-2FD-hFc
T4 sequence (chain, as listed by the source limits assumed): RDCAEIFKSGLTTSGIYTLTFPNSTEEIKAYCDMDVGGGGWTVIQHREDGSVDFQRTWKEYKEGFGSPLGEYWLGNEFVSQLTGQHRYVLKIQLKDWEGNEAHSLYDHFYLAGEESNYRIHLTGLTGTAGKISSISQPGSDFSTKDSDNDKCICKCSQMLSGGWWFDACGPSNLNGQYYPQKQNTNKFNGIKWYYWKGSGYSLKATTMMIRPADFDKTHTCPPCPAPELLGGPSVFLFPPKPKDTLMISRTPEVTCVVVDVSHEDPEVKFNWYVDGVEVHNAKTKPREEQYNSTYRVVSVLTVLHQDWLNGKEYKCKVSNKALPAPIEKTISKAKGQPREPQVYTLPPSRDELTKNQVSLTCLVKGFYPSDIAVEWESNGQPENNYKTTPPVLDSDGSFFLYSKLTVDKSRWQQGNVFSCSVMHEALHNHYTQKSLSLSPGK
Protocol: as §1

[5] = biological target: T5, Dimeric Monkey Ang-2FD conjugated to human IgG1 (monkey (Macca fascicularis); human); test: SPR, captured Ab, RT
T5 construct: also called Monkey Ang-2FD-hFc
T5 sequence (chain, as listed by the source limits assumed): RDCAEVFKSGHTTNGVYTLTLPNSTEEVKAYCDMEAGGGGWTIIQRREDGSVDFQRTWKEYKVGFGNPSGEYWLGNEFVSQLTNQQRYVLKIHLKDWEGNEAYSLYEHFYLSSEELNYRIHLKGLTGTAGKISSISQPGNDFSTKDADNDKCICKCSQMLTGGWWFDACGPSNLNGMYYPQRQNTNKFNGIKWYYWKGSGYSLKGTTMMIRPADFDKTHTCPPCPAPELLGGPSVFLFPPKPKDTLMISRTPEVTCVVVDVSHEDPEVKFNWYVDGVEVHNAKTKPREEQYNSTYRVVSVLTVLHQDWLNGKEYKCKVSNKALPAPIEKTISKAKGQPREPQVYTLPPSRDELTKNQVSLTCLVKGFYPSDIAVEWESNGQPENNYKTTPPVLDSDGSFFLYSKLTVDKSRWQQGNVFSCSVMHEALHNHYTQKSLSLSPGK
Protocol: as §1

[6] = biological target: T6, human bow-Ang-2 tetrameric construct (hBA2) (human); test: SPR, captured Ab
T6 construct: also called human BA2; hBA2-hIgG1
T6 sequence (chain, as listed by the source limits assumed): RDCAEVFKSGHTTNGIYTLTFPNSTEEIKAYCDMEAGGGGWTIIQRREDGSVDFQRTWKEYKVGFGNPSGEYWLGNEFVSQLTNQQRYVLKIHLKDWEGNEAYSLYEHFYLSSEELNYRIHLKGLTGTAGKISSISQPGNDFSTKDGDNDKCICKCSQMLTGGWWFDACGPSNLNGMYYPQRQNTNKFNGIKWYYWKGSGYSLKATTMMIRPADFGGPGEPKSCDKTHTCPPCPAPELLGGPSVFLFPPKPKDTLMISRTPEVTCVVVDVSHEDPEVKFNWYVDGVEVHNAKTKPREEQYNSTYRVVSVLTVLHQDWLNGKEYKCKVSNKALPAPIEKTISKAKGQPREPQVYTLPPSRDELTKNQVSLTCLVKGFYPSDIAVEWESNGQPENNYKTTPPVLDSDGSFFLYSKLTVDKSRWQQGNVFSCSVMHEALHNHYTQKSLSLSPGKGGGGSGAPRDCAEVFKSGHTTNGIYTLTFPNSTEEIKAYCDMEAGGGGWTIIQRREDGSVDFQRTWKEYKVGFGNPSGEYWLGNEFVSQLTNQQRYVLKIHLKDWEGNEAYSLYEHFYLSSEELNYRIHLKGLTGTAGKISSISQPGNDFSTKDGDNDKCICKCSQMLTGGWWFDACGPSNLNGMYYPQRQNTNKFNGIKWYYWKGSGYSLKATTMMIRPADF

Binder	Kd [1] [nM]	T1/2 [1] [h]	Kd [2] [nM]	T1/2 [2] [h]	Kd [3] [nM]	T1/2 [3] [h]	Kd [4] [nM]	T1/2 [4] [h]	Kd [5] [nM]	T1/2 [5] [h]	Kd [6] [nM]	T1/2 [6] [h]
H1H691P (antibody, V domains shown) VH: EVQLVESGGGLVQPGRSLRLSCAASGFTFDDYAMHWVRQAPGKGLEWVSGISWNSGDIGYADSVKGRFTISRDNAKNSLYLQMNSLRAQDTALYYCAKAYGDYYYFYGMDVWGQGTTVTVS VL: EIVLTQSPGTLSLSPGERATLSCRASQSVSSSYLAWYQQKPGQAPRLLIFSASSRATGIPDRFSGSGSGTDFTLTISRLEPEDFAVYYCQQYDNSLTFGGGTKVEIK					0.22	0.642	0.22	0.73	0.29	0.683		
H1H730N (antibody, V domains shown) VH: EVQLVESGGGLVQPGGSLRLSCAASGFAFRSYWMTWVRQAPGKGLEWVANIQQDGNDKYYVDSVKGRFTISRDNAKNSLYLQMNSLRAEDTAVYYCARDTGIAEAGPFDYWGQGTLVTVSS VL: DIQMTQSPSTLSASVGDRVSITCRASQTIISWLAWYQQKPGKAPRLLIYKASSLESGVPSRFSGSGSGTEFTLTINSLQPDDFATYYCQQYNRYWTFGQGTKVEIK	2.84	0.0573	0.0475	8.9	0.234	1.03	0.0971	1.5	3.4	1.45	0.0559	2.53
H1H732N (antibody, V domains shown) VH: EVQLVESGGGLVRPGGSLRLSCAASGFTFTNAWMSWVRQAPGKGLEWIGQIKSKTDGGTIDYAAPVKGRFTVSRDDSENTLFLQMNSLKTEDTAVYYCAGNWNYVDFDYWGQGTLVTVSS VL: DIQMTQSPSSLSASVGDRVTITCRASQDIRNDLGWYQQKPGKAPKRLIYAASSLQGGVPSRFSGSGSGTEFTLTISSLQPEDFATYYCLQHNSYPFTFGPGTKVDIK	264	0.00367	0.202	4.4	0.386	0.95	0.529	0.85	0.439	1.97	0.132	1.22
H1H707P (antibody, V domains shown) VH: QVQLVESGGGVVQPGRSLRLSCAASGFTFSSYGMHWVRQAPDKGLEWVAVKWDDGSNKYYADSVKGRFTISRDNSKNTLYLQMNSLRAEDTAVYYCAREGPYDFYSGYGAFDIWGQGTMVTVSS VL: not shown					0.262	0.443	0.328	0.573	0.283	0.372		
H1H704P (antibody, V domains shown) VH: QVQLVESGGDVVQPGRSLRLSCAASGFTFSSYGMHWVRQAPGKGLEWVAIIWYDGSNKYYADSVKGRFTISRDNSKNTLYLQMNSLRVEDTAVYSCARDFSISSRHFDYWGQGTLVTVSS VL: DIQMTQSPSSLSASVGDRVTITCRASQAINNYLAWFQQKPGKAPKSLIYATSNLQSGVPSQFSGSGSGTDYTLTISSLQPEDFATYYCQQYYIYPITFGQGTRLEIK	0.39	0.0552	0.0362	12.5	0.331	1.43	0.484	1.03	0.818	0.558	0.0939	1.96

Stronger by Kd [3], values ahead:

Kd [1] [nM]	T1/2 [1] [h]	Kd [2] [nM]	T1/2 [2] [h]	Kd [3] [nM]	T1/2 [3] [h]	Kd [4] [nM]	T1/2 [4] [h]	Kd [5] [nM]	T1/2 [5] [h]	Kd [6] [nM]	T1/2 [6] [h]	Binder
2.35	0.55	0.00948	65.5	0.0882	4.23	0.124	3.88	0.0965	13	0.00971	18.6	H1H743N (antibody, V domains shown) VH: EVQLLESGGGLVQPGGSLRLSCAASGFTFRKYAMSWVRQAPGKGLEWVSVISVSGGNTYYADSVKGRFTISRDNSKNTLYLQLNSLRAEDTAVYYCAKDLTDIVLMVYVDYWGQGTLVTVSS VL: DIQMTQSPSSVSASVGDRVTITCRASQDIDRWLAWYQQKPGKAPKLLIYAASSLQSGVPSRFSGSGSGTDFTLTISTLQPEDFATYYCQQANSLPFTFGGGTKVEIK
486	0.0382	0.0449	11.1	0.186	1.08	0.276	0.967	0.683	1.55	0.0721	1.45	H1H742N (antibody, V domains shown) VH: DVQLLESGGDLVQPGGSLRLSCEASGFTFRNYVMIWVRQAPGKGLEWVSGISNSGGTTHYTDSVKGRFTISRDNSKNTLYLQINSLRAEDTAVYYCAKGYLDTSLIEGNWFDPWGQGTLVTVSS VL: NIVMTQSPLSLPVTPGEPASISCRSSQSLLHSNGFNYLNWFLQKPGQSPQLLIYLGSNRASGVPDKFSGSGSGTDFTLNINRVEAEDVGIYFCMQTLQTPLTFGGGTKVEIK
1.18	0.0977	0.043	9.43	0.162	1.35	5.76	0.333	2	1.28	0.0418	3.08	H1H728N (antibody, V domains shown) VH: EVQLVESGGDLVQPGGSLRLSCTASGFTFSKYWMTWVRQAPGRGLEWVANIKEDGNEKYFLDSVKGRFTISRDNAKDLLFLQMNSLRGEDTAVYYCVRDRGIEVAGPFDYWGQGTLVTVSS VL: DIQMTQSPSTLSASVGDRVTVTCRASQTIINWLAWYQQKPGKAPKLLISKASSLESGVPSRFSGSGSGTEFTLTISSLQPDDFATYYCQQYNRYWTFGQGTMVEIK
2.4	0.222	0.0226	14.9	0.115	1.78	0.185	1.4	0.239	2.88	0.0233	5.38	H1H724N (antibody, V domains shown) VH: QVQLVESGGGVVQPGRSLRLSCAASGFTLSNYGMHWVRQAPGKGLEWVAVIWHDGSNTYYADSVKGRFTISRDNSKNTLYLQMNSLRAEDTAVYYCTREGLDFWSGYYPNWFDPWGQGTLVTVSS VL: DIQMTQSPSSLSASVGDRVTITCRASQGIRNDLGWYQQKPGKAPKRLIYAASNLQGGVPSRFSGSGSGTEFTLTISSLQPEDFAAYYCLQHNIYPLTFGGGTKVEIK
1.13	0.558	0.0125	30.6	0.118	1.82	0.177	1.6	0.407	2.38	0.0325	3.92	H1H749N (antibody, V domains shown) VH: QVQLVESGGGVVQPGRSLRLSCAASGFTFSSYGMHWVRQAPGKGLEWVAVIWYDEFNKYYADSVKGRFTISRDNSKNTLYLQMNSLRAEDTAVYYCARERESGYSYGFDYWGQGTLVTVSS VL: EIVMTQSPATLSVSPGERATLSCRAGQSVSSNLAWYQQKPGQAPRLLIYGASTRATGIPARFSGSGSGTEFTLTISSLQSEDFAVYYCQQYNNWWTFGQGTKVEIK
	0.017	0.0274	11	0.201	0.84	0.357	0.783	0.164	0.888	0.0791	1.06	H1H706P (antibody, V domains shown) VH: QVQLVESGGGVVQPGRSLRLSCAASGFTFSSYGMHWVRQAPDKGLEWVAVKWDDGSNKYYADSVKGRFTISRDNSKNTLYLQMNSLRAEDTAVYYCAREGPYDFYSGYGAFDIWGQGTMVTVSS VL: DIQMTQSPSSLSASVGDRVTITCRASQGISNYLAWFQQKPGKAPKSLIYAASSLQSGVPSKFSGSGSGTDFTLTISSLQPEDFATYYCQQYNSYPRTFGQGTKVEIK
